Columns and labels:
[1] = molecular target: CD47-his蛋白 (human); assay: screening ELISA of hybridoma supernatant on coated CD47-his
[2] = molecular target: T1, 重组CD47-Fc融合蛋白 (human, UniProt Q08722 19-139, limits assumed); assay: competition ELISA: CD47-Fc coated, antibody blocks binding of SIRPα-His, anti-His-HRP detection
T1 construct: not shown: Fc part

[3] = molecular target: CD47蛋白 (analyte in the ForteBio assay) (human, UniProt Q08722 19-139, limits assumed); assay: BLI (ForteBio), antibody captured on Protein A sensor, CD47 protein in solution at 6 concentrations
CD47蛋白 (analyte in the ForteBio assay), sequence (Q08722 19-139 limits assumed): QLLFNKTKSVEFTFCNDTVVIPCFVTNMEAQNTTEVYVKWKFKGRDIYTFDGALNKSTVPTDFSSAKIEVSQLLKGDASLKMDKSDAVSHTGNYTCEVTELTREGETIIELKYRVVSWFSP

CD47-his蛋白 (human), sequence (chain, as listed by the source limits assumed): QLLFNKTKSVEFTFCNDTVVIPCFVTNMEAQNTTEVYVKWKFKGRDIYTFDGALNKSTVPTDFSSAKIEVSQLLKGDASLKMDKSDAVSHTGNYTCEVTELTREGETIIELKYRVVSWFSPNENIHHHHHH
T1 sequence (Q08722 19-139 limits assumed): as the sequence (Q08722 19-139 limits assumed) above

B1: 抗CD47单克隆抗体3D8 (杂交瘤细胞株3D8, CGMCC No:17293) (antibody, V domains shown)
VH: EVKLQESGAELMKPGASVKISCKATGYTFSRYWIEWVKQRPGHGLEWIGDILPGTSNTNYNEKFKGKATFTADSSSNTAYMQLSSLTSEDSAVYYCARRGLLRFDCWGQGTTVTVSS
VL: DIQLTQSPAIMSASPGEKVTMTCRASSSVSSSYLHWYQQKSGASPKLWIYSSSTLASGVPARFSGSGSGTSYSLTISSVEAEDAATYYCQQYSGYPLTFGSGTKLGIKR
Question: Which results are given for B1?
Answer: binding result [1]: binds; EC50 [2]: 0.17 nM; Kd [3]: 0.0129 nM; koff [3]: 1.1e-05 s⁻¹; kon [3]: 853000 M⁻¹ s⁻¹

Reference: patent CN112048019A (LUNAN PHARMACEUTICAL GROUP CORP, dated 2020)
